Data reported in the supplement of paper PMC12783771.
± gives the standard deviation of the averaged measurements.

B1: library; numbered along this chain (parent)
chain: MNIQIGELAKRTACPVVTIRFYEQEGLLPPPGRSRGNFRLYGEEHVERLQFIRHCRSLDMPLSDVRTLLSYRKRPDQDCGEVNMLLDEHIRQVESRIGALLELKHHLVELREACSGARPAQSCGILQGLSDCVCDTRGTTAHPSD

Assays:
[1] = variants of: B1; test: sfGFP reporter fluorescence (15 h) (µM FITC); higher = higher leak; settings: library round: Round 0; ligand: none
Summary of the method: (§1)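 Linear PbrR templates were made by PCR, normalized to 5 nM with an Echo, and expressed in BL21 Star (DE3) PANOx-SP extract with the pPbrR-sfGFP reporter plasmid and 30 μg/mL GamS. Echo-assembled 1 μL reactions held 1 µM lead chloride, 30 µM zinc acetate or no metal and were incubated 15 hr at 30 °C. Endpoint sfGFP fluorescence was read on a Synergy Neo2 and expressed as µM FITC using standard curves. Up to three biological replicates were run.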

[2] = variants of: B1; test: sfGFP reporter fluorescence (15 h) (µM FITC); higher = stronger transcriptional activation; settings: library round: Round 0
Summary of the method: as §1

Row | Variant | sfGFP reporter fluorescence [1] | sfGFP reporter fluorescence ([2]; ligand: 1 µM Pb) | sfGFP reporter fluorescence ([2]; ligand: 30 µM Zn)
1 | I97Q | 0.057 ± 0.0029 | 0.057 ± 0.0034 | 0.287 ± 0.0088
2 | I97G | 0.0555 ± 0.0013 | 0.0603 ± 0.0013 | 0.404 ± 0.014
3 | I97C | 0.0601 ± 0.0015 | 0.0702 ± 0.0065 | 0.761 ± 0.036
4 | I97E | 0.0574 ± 0.0044 | 0.0618 ± 0.0018 | 0.386 ± 0.055
5 | I97Y | 0.0603 ± 0.0034 | 0.0825 ± 0.0026 | 0.721 ± 0.031
6 | I97T | 0.0579 ± 0.0042 | 0.0662 ± 0.0034 | 0.579 ± 0.0096
7 | I97R | 0.0577 ± 0.0054 | 0.0564 ± 0.0015 | 0.116 ± 0.0013
8 | E102A | 0.0735 ± 0.0018 | 0.0771 ± 0.0029 | 0.302 ± 0.057
9 | E94R | 0.0597 ± 0.0052 | 0.0803 ± 0.0031 | 0.722 ± 0.032
10 | E94M | 0.0581 ± 0.0018 | 0.0726 ± 0.0047 | 0.598 ± 0.031
11 | E94C | 0.0645 ± 0.0021 | 0.115 ± 0.011 | 0.946 ± 0.18
12 | E94N | 0.0607 ± 0.0013 | 0.0755 ± 0.0047 | 0.659 ± 0.026
13 | E94H | 0.0592 ± 0.0029 | 0.0632 ± 0.0023 | 0.344 ± 0.021
14 | E94Y | 0.0577 ± 0.0034 | 0.0553 ± 0.0047 | 0.153 ± 0.0047
15 | E94T | 0.0673 ± 0.0029 | 0.108 ± 0.03 | 1.27 ± 0.29
16 | E94W | 0.0577 ± 0.0039 | 0.05516 ± 0.00026 | 0.143 ± 0.0054
17 | E94G | 0.0553 ± 0.0036 | 0.0656 ± 0.0031 | 0.52721 ± 0.00026
18 | E94I | 0.0555 ± 0.0034 | 0.08008 ± 0.00026 | 0.714 ± 0.013
19 | E94V | 0.059 ± 0.0042 | 0.0847 ± 0.0052 | 0.739 ± 0.052
20 | E94Q | 0.0632 ± 0.0013 | 0.0856 ± 0.008 | 1.02 ± 0.07
21 | E94S | 0.0674 ± 0.0036 | 0.132 ± 0.0031 | 1.51 ± 0.013
22 | E94K | 0.0612 ± 0.0026 | 0.0793 ± 0.0034 | 0.824 ± 0.043
23 | E94A | 0.0738 ± 0.0044 | 0.0867 ± 0.0065 | 0.333 ± 0.015

Row | Variant | sfGFP reporter fluorescence [1] | sfGFP reporter fluorescence ([2]; ligand: 1 µM Pb) | sfGFP reporter fluorescence ([2]; ligand: 30 µM Zn)
24 | E94L | 0.0579 ± 0.0021 | 0.0698 ± 0.0075 | 0.583 ± 0.006
25 | E94D | 0.0579 ± 0.0052 | 0.0623 | 0.32 ± 0.013
26 | E94F | 0.0563 ± 0.0044 | 0.0579 ± 0.001 | 0.177 ± 0.006
27 | E94P | 0.0535 ± 0.0026 | 0.0533 ± 0.0023 | 0.05571 ± 0.00052
28 | R96A | 0.0564 | 0.07495 ± 0.00026 | 0.294 ± 0.0083
29 | N83Y | 0.0594 ± 0.0015 | 0.0762 ± 0.001 | 0.0645 ± 0.0015
30 | N83K | 0.0603 ± 0.0034 | 0.0663 ± 0.0015 | 0.07532 ± 0.00026
31 | N83T | 0.0607 ± 0.00078 | 0.0759 ± 0.0015 | 0.226 ± 0.047
32 | N83D | 0.0614 ± 0.0013 | 0.0607 ± 0.0013 | 1.003 ± 0.0065
33 | N83M | 0.06102 ± 0.00026 | 0.0768 ± 0.0023 | 0.06194 ± 0.00052
34 | N83V | 0.0577 ± 0.0034 | 0.07623 ± 0.00052 | 0.0588 ± 0.0013
35 | N83I | 0.0561 ± 0.0015 | 0.0718 ± 0.001 | 0.055 ± 0.001
36 | N83S | 0.0605 ± 0.0026 | 0.0775 ± 0.00078 | 0.333 ± 0.016
37 | N83F | 0.0588 ± 0.00078 | 0.07275 ± 0.00026 | 0.05882 ± 0.00026
38 | N83P | 0.05772 ± 0.00026 | 0.0579 ± 0.001 | 0.0552 ± 0.0023
39 | N83W | 0.059 ± 0.0031 | 0.0748 ± 0.0042 | 0.0619
40 | N83A | 0.061 ± 0.0013 | 0.0867 ± 0.0065 | 0.1411 ± 0.001
41 | N83C | 0.0601 ± 0.0021 | 0.114 ± 0.016 | 0.0649 ± 0.0015
42 | N83G | 0.0559 ± 0.00078 | 0.0748 ± 0.001 | 0.692 ± 0.13
43 | N83L | 0.0585 ± 0.0018 | 0.07 ± 0.0088 | 0.0575 ± 0.0031
44 | N83R | 0.0625 ± 0.00078 | 0.0775 ± 0.0065 | 0.0883 ± 0.0021
45 | N83Q | 0.06487 ± 0.00052 | 0.0693 | 1.55 ± 0.4
46 | N83E | 0.0612 ± 0.001 | 0.0612 ± 0.0015 | 0.141 ± 0.0023

Row | Variant | sfGFP reporter fluorescence [1] | sfGFP reporter fluorescence ([2]; ligand: 1 µM Pb) | sfGFP reporter fluorescence ([2]; ligand: 30 µM Zn)
47 | N83H | 2.73 ± 0.37 | 2.63 ± 0.52 | 3.526 ± 0.0086
48 | R91A | 0.0618 ± 0.00078 | 0.0724 ± 0.0029 | 0.6942 ± 0.0015
49 | I90Q | 0.05974 ± 0.00052 | 0.0737 ± 0.0042 | 0.637 ± 0.052
50 | I90A | 0.06249 ± 0.00026 | 0.0792 ± 0.0031 | 0.521 ± 0.0044
51 | I90R | 0.0658 ± 0.0049 | 0.125 | 0.97 ± 0.025
52 | I90H | 0.0619 ± 0.0036 | 0.0898 ± 0.0021 | 0.755 ± 0.0078
53 | I90W | 0.0585 ± 0.0023 | 0.0619 ± 0.001 | 0.272 ± 0.0062
54 | I90C | 0.0592 ± 0.0018 | 0.0656 ± 0.00052 | 0.568 ± 0.012
55 | I90P | 0.0574 ± 0.0029 | 0.0616 ± 0.0015 | 0.151 ± 0.0047
56 | I90G | 0.0535 ± 0.0031 | 0.0577 ± 0.00078 | 0.222 ± 0.0086
57 | I90S | 0.0601 ± 0.0031 | 0.0671 ± 0.0036 | 0.384 ± 0.0091
58 | I90T | 0.0608 ± 0.0021 | 0.07953 ± 0.00052 | 0.595 ± 0.007
59 | I90V | 0.059 ± 0.0036 | 0.064 ± 0.00078 | 0.583 ± 0.015
60 | I90L | 0.0559 ± 0.0029 | 0.0583 ± 0.0015 | 0.3539 ± 0.0034
61 | I90K | 0.0621 ± 0.0023 | 0.099 ± 0.0047 | 0.85 ± 0.061
62 | I90F | 0.0566 ± 0.0054 | 0.063 ± 0.0026 | 0.339 ± 0.033
63 | I90E | 0.0579 ± 0.0042 | 0.05791 ± 0.00052 | 0.0977 ± 0.0018
64 | I90M | 0.0588 ± 0.0018 | 0.0625 ± 0.0018 | 0.384 ± 0.013
65 | I90Y | 0.0608 ± 0.0026 | 0.108 ± 0.0023 | 0.9855 ± 0.0052
66 | I90D | 0.0568 ± 0.0047 | 0.0561 ± 0.0015 | 0.085 ± 0.0057
67 | I90N | 0.05717 ± 0.00052 | 0.0601 ± 0.0036 | 0.279 ± 0.012
68 | D76A | 0.06157 ± 0.00052 | 0.0614 ± 0.0034 | 0.202 ± 0.013
69 | D87A | 0.0596 ± 0.0049 | 0.0652 ± 0.0015 | 0.393 ± 0.011

Row | Variant | sfGFP reporter fluorescence [1] | sfGFP reporter fluorescence ([2]; ligand: 1 µM Pb) | sfGFP reporter fluorescence ([2]; ligand: 30 µM Zn)
70 | L100A | 0.0803 ± 0.0015 | 0.131 ± 0.0044 | 0.663 ± 0.2
71 | H89N | 0.0597 ± 0.001 | 0.0663 | 0.261 ± 0.015
72 | H89F | 0.0581 ± 0.0039 | 0.0566 ± 0.0039 | 0.063 ± 0.0021
73 | H89T | 0.0614 ± 0.00078 | 0.0579 ± 0.0021 | 0.0588 ± 0.0054
74 | H89R | 0.0685 ± 0.0042 | 0.0936 ± 0.0054 | 0.975 ± 0.017
75 | H89L | 0.059 ± 0.0026 | 0.0553 ± 0.0021 | 0.0649 ± 0.0042
76 | H89M | 0.061 ± 0.0013 | 0.06359 ± 0.00026 | 0.1426 ± 0.00052
77 | H89Q | 0.0645 ± 0.0047 | 0.108 ± 0.0029 | 1.3 ± 0.08
78 | H89C | 0.0553 ± 0.0015 | 0.0574 ± 0.0039 | 0.0614 ± 0.0034
79 | H89Y | 0.0596 ± 0.0018 | 0.0574 ± 0.0018 | 0.0566 ± 0.0023
80 | H89E | 0.0647 ± 0.0023 | 0.0795 ± 0.0031 | 0.139 ± 0.0023
81 | H89S | 0.0572 ± 0.001 | 0.0579 ± 0.0031 | 0.0627 ± 0.001
82 | H89D | 0.0623 ± 0.0021 | 0.0669 ± 0.0044 | 0.08283 ± 0.00052
83 | H89P | 0.0566 ± 0.0029 | 0.05498 ± 0.00052 | 0.0564
84 | H89W | 0.0607 ± 0.0023 | 0.0585 ± 0.00078 | 0.06084 ± 0.00052
85 | H89I | 0.0539 ± 0.0047 | 0.0537 ± 0.0018 | 0.0594 ± 0.0021
86 | H89K | 0.0601 ± 0.0026 | 0.0599 ± 0.0013 | 0.161 ± 0.0036
87 | H89A | 0.05992 ± 0.00026 | 0.05699 ± 0.00026 | 0.06725 ± 0.00026
88 | H89G | 0.0559 ± 0.0044 | 0.05443 ± 0.00026 | 0.0577 ± 0.0023
89 | H89V | 0.0592 ± 0.0034 | 0.0575 ± 0.0021 | 0.05681 ± 0.00052
